Laboratory results taken from patent publication US20240228572A1 (I2O THERAPEUTICS, published 2024).
*1 amine or outer side, *2 acyl side, *3 side chain or, on linkers, in order; H or OH if unused. Bridges are numbered along the chain shown (N, C = ends). Primed or numbered codes have the meaning given here. Where no end group is shown, it is not given here. Side-chain parts run from the residue outwards. [ ]: non-standard residue; d: D form. The star is where a group is joined. dpeg″ = spacer —[CO(CH2)O(CH2)2O(CH2)NH]—, O=C(COCCOCN[*:1])[*:2]; dpeg = —[CO(CH2)O(CH2)2O(CH2)NH]— spacer, O=C(COCCOCN[*:1])[*:2]; C20 diacid = O=C(O)CCCCCCCCCCCCCCCCCCC(=O)*; γGlu = O=C(O)[C@H](CCC(=O)[*:2])N[*:1]; Aib = CC(C)(N)C(=O)O

Legend:
[1] = target: human GLP-1 receptor (GLP-1R) (human, UniProt P43220 24-463); test: cell-based or functional assay
[2] = target: human Glucagon receptor (GCGR) (human, UniProt P47871 26-477); test: cell-based or functional assay

human GLP-1 receptor (GLP-1R), sequence (P43220 24-463): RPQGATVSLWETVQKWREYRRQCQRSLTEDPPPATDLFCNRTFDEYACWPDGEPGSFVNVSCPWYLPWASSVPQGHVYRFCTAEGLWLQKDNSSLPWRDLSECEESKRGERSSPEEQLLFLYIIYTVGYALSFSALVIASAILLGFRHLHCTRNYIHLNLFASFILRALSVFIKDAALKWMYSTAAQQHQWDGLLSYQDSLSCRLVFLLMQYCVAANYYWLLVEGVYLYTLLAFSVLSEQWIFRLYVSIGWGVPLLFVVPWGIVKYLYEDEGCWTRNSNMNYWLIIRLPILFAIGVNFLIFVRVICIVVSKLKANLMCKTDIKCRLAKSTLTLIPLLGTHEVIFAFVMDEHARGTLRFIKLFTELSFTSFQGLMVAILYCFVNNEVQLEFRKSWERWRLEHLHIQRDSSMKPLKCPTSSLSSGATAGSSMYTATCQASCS

## YSHGTFTSDYSKYLDK([γGlu-γGlu-dpeg-C20 diacid])KYAQEF[Aib]KWLEDEPSSGAPPPS-OH [Compound A9]
[1]
  pEC50, cAMP accumulation: < 9 pEC50 (-log M)
[2]
  pEC50, cAMP accumulation: 10.6 pEC50 (-log M)

B1: Compound A29 (peptide)
peptide: YSHGTFTSDYSKYLD[Aib]KYAQK([γGlu-γGlu-dpeg″-C20 diacid])FVKWLEEEPSSGAPPPS-OH
modifications: lactam 24-28; N-terminus assumed
SMILES: CC(C)C[C@@H]1NC(=O)[C@H](Cc2c[nH]c3ccccc23)NC(=O)[C@@H](NC(=O)[C@@H](NC(=O)[C@H](Cc2ccccc2)NC(=O)[C@H](CCCCNC(=O)CC[C@H](NC(=O)CC[C@H](NC(=O)COCCOCNC(=O)CCCCCCCCCCCCCCCCCCC(=O)O)C(=O)O)C(=O)O)NC(=O)[C@H](CCC(N)=O)NC(=O)[C@H](C)NC(=O)[C@H](Cc2ccc(O)cc2)NC(=O)[C@H](CCCCN)NC(=O)C(C)(C)NC(=O)[C@H](CC(=O)O)NC(=O)[C@H](CC(C)C)NC(=O)[C@H](Cc2ccc(O)cc2)NC(=O)[C@H](CCCCN)NC(=O)[C@H](CO)NC(=O)[C@H](Cc2ccc(O)cc2)NC(=O)[C@H](CC(=O)O)NC(=O)[C@H](CO)NC(=O)[C@@H](NC(=O)[C@H](Cc2ccccc2)NC(=O)[C@@H](NC(=O)CNC(=O)[C@H](Cc2c[nH]cn2)NC(=O)[C@H](CO)NC(=O)[C@@H](N)Cc2ccc(O)cc2)[C@@H](C)O)[C@@H](C)O)C(C)C)CCCCNC(=O)CC[C@@H](C(=O)N[C@@H](CCC(=O)O)C(=O)N2CCC[C@H]2C(=O)N[C@@H](CO)C(=O)N[C@@H](CO)C(=O)NCC(=O)N[C@@H](C)C(=O)N2CCC[C@H]2C(=O)N2CCC[C@H]2C(=O)N2CCC[C@H]2C(=O)N[C@@H](CO)C(=O)O)NC(=O)[C@H](CCC(=O)O)NC1=O
[1]
  pEC50, cAMP accumulation: < 9 pEC50 (-log M)

## YSHGTFTSDYSKYLDK([γGlu-γGlu-dpeg-C20 diacid])KYAQEFV[Aib]WLEDEPSSGAPPPS-OH [Compound A2]
[2]
  pEC50, cAMP accumulation: 12.5 pEC50 (-log M)

## YSHGTFTSDYSKYLDK([γGlu-γGlu-dpeg″-C20 diacid])KYAEEFVKWLEDEPSSGAPPPS-OH (lactam 20-24) [Compound A12]
[1]
  pEC50, cAMP accumulation: < 9 pEC50 (-log M)
[2]
  pEC50, cAMP accumulation: 11.8 pEC50 (-log M)

## YSHGTFTSDYSKYLD[Aib]KK([γGlu-γGlu-dpeg-C20 diacid])AQEFV[Aib]WLEDEPSSGAPPPS-OH [Compound A4]
[2]
  pEC50, cAMP accumulation: 11.7 pEC50 (-log M)

## YSHGTFTSDYSKYLDK([γGlu-γGlu-dpeg-C20 diacid])KYAQEF[Aib]EWLEDEPSSGAPPPS-OH [Compound A8]
[1]
  pEC50, cAMP accumulation: < 9 pEC50 (-log M)
[2]
  pEC50, cAMP accumulation: 9.9 pEC50 (-log M)

## YSHGTFTSDYSKYLD[Aib]K([γGlu-γGlu-dpeg-C20 diacid])YAQEFV[Aib]WLEDEPSSGAPPPS-OH [Compound A3]
[2]
  pEC50, cAMP accumulation: 12.5 pEC50 (-log M)

## YSHGTFTSDYSKYLK([γGlu-γGlu-dpeg-C20 diacid])[Aib]KYAQEFV[Aib]WLEDEPSSGAPPPS-OH [Compound A1]
[2]
  pEC50, cAMP accumulation: 11.5 pEC50 (-log M)

## YSHGTFTSDYSKYLDK([γGlu-γGlu-dpeg″-C20 diacid])KYAKEFVEWLEDEPSSGAPPPS-OH (lactam 20-24) [Compound A11]
[1]
  pEC50, cAMP accumulation: < 9 pEC50 (-log M)
[2]
  pEC50, cAMP accumulation: 11.7 pEC50 (-log M)

## YSHGTFTSDYSKYLD[Aib]KYAK([γGlu-γGlu-dpeg-C20 diacid])EFV[Aib]WLEDEPSSGAPPPS-OH [Compound A5]
[2]
  pEC50, cAMP accumulation: 11.6 pEC50 (-log M)

## YSHGTFTSDYSKYLDK([γGlu-γGlu-dpeg-C20 diacid])KYAQEF[Aib]SWLEDEPSSGAPPPS-OH [Compound A10]
[1]
  pEC50, cAMP accumulation: < 9 pEC50 (-log M)
[2]
  pEC50, cAMP accumulation: 10.4 pEC50 (-log M)
